Source: article PMC2796330 (Molecular cell, 2009)
Where no end group is shown, it is not given here. [ ]: non-standard residue; d: D form. pT = C[C@@H](OP(=O)(O)O)[C@H](N)C(=O)O

How the values were obtained:
[1] = biological target: recombinant Nedd4L WW2 domain; assay: ITC
Smurf1 WW2 domain = assay: ITC
Sequence of Smurf1 WW2 domain (Q9HCE7 whole entry, the tested form may be a part): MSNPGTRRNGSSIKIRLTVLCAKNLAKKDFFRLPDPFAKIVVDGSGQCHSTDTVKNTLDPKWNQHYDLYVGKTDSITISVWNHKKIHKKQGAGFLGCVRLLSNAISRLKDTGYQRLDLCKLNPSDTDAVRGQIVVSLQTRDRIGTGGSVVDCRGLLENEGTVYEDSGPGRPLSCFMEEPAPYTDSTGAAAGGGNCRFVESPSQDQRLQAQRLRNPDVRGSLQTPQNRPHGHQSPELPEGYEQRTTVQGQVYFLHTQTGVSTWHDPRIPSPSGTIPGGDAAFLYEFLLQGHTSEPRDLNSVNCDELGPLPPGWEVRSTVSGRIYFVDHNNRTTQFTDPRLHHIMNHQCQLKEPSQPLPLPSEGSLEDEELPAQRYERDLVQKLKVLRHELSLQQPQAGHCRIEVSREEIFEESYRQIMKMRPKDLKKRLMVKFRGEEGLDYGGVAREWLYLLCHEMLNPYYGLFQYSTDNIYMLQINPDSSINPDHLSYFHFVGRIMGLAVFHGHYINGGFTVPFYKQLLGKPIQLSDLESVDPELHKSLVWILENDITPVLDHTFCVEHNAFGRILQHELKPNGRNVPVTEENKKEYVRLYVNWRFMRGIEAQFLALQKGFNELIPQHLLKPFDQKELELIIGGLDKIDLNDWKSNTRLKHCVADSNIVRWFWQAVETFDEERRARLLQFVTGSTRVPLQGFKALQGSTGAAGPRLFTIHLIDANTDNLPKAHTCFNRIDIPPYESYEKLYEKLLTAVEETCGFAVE

Sequence of recombinant Nedd4L WW2 domain (Q96PU5 whole entry, the tested form may be a part): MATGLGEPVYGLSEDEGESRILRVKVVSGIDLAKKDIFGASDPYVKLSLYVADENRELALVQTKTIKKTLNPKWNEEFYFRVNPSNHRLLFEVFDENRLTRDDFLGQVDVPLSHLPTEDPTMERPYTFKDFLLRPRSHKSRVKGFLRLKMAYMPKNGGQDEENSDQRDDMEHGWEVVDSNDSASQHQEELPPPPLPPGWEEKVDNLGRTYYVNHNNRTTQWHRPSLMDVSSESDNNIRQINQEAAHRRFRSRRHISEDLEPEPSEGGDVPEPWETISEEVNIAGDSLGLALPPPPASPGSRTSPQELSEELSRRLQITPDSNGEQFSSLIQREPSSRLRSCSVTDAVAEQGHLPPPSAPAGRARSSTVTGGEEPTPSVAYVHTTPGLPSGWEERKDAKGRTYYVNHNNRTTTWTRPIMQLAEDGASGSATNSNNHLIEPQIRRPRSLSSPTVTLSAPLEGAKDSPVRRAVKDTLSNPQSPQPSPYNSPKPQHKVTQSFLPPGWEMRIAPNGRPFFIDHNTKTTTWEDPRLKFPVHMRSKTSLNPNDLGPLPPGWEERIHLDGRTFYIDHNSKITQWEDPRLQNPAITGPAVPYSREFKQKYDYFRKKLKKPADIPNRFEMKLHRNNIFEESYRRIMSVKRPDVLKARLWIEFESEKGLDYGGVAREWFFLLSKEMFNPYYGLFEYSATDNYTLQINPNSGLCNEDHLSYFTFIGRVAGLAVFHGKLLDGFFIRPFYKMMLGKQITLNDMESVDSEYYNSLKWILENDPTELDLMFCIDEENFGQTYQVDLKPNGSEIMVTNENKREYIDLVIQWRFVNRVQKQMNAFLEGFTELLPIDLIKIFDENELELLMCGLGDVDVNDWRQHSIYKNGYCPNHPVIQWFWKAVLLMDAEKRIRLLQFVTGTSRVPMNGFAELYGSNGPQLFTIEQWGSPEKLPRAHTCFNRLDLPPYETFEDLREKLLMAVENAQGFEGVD

| Kd [1] | Kd (Smurf1 WW2 domain) | Binder |
| --- | --- | --- |
| 7.8 µM | – | IPE[pT]PPPGYISED [Smad2 pT-PY motif peptide (phosphothreonine)] |
| – | 32 µM | PADTPPPAYLPPE [Smad1 T-PY motif peptide] |
| 4.1 µM | 36 µM | IPE[pT]PPPGYLSED [Smad3 pT-PY motif peptide (phosphothreonine)] |
